Measured values taken from patent publication US20240166765A1 (ICONIC THERAPEUTICS, published 2024).
Read-outs that look alike come from different tables or passages of the source.

T1: cynomolgus TF ECD-His6 (cynomolgus monkey (Macaca fascicularis))
T1 construct: made in Expi293 cells; also called TF-His; cTF
T1 chain: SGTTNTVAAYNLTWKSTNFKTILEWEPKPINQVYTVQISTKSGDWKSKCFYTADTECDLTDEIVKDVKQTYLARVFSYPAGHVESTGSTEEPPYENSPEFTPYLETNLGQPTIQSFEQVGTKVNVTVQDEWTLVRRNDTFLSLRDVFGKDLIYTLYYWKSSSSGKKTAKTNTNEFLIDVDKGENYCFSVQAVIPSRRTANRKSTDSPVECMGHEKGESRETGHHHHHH

T2: hTF_N171H_T197K (human, UniProt P13726 33-251)
T2 construct: the entry already holds N171H and T197K; on transfected HEK293 cells
T2 chain: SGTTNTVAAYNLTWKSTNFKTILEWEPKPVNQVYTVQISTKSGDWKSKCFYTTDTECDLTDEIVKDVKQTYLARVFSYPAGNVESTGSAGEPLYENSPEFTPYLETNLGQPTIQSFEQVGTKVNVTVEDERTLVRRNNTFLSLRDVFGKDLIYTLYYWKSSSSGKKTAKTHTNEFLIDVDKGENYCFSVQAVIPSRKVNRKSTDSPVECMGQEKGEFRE

T3: hTF_N171H_T197K (human, UniProt P13726 33-251)
T3 construct: on HEK293 cells
T3 chain: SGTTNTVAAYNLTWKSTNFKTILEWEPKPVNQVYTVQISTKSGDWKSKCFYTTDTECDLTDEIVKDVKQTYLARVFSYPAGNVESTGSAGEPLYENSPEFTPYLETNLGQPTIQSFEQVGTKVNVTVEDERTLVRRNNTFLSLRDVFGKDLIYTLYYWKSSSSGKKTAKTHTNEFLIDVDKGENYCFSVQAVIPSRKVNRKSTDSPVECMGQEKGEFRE

T4: h1-107_r (human/rat chimera)
T4 construct: on HEK293 cells
T4 chain: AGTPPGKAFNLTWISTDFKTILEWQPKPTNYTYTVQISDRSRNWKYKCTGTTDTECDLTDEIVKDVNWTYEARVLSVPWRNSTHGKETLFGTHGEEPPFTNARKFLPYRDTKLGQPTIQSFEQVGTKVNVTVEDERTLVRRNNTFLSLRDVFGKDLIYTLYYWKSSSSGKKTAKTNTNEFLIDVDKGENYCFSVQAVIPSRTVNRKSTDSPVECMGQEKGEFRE


Tests used:
mouse TF ECD-His6 [1] = biological target: T5, mouse TF ECD-His6 (mouse, UniProt P20352 29-251); assay: BLI (ForteBio Octet)
T5 construct: made in Expi293 cells; also called TF-His; mTF

human TF ECD-His6 [2] = biological target: T6, human TF ECD-His6 (human, UniProt P13726 33-251); assay: BLI (ForteBio Octet)
T6 construct: made in Expi293 cells; the entry holds the ECD with the C-terminal TG-His6; also called TF-His; hTF

cynomolgus TF ECD-His6 [3] = biological target: T1, cynomolgus TF ECD-His6; assay: BLI (ForteBio Octet)
human TF ECD-His6 [4] = biological target: T6, human TF ECD-His6; assay: SPR (Biacore), antibody on chip, TF-His titrated
cynomolgus TF ECD-His6 [5] = biological target: T1, cynomolgus TF ECD-His6; assay: SPR (Biacore), antibody on chip, TF-His titrated
[6] = biological target: rTF (rat TF) on HEK293 cells (rat, UniProt P42533 29-252); assay: live cell staining of transfected HEK293, flow cytometry
hTF_N171H_T197K [7] = biological target: T2, hTF_N171H_T197K; assay: as above
[8] = biological target: T7, human Tissue Factor on MDA-MB-231 cells (human, UniProt P13726 33-295); assay: flow cytometry, MDA-MB-231 cells; binding of 20 nM FVII-Fc-Alexa488 (competitor) left at 28 nM Ab
T7 construct: also called TF; hTF

[9] = biological target: T7, human Tissue Factor on MDA-MB-231 cells; assay: flow cytometry, MDA-MB-231 cells; binding of 20 nM FVII-Fc-Alexa488 (competitor) left at 250 nM Ab
[10] = biological target: T7, human Tissue Factor on MDA-MB-231 cells; assay: cell-based or functional assay
[11] = biological target: T7, human Tissue Factor on MDA-MB-231 cells; assay: flow cytometry, MDA-MB-231 cells; binding of 20 nM FVII-Fc-Alexa488 (competitor) left at 83 nM Ab
[12] = biological target: T7, human Tissue Factor on MDA-MB-231 cells; assay: cell-based or functional assay; remark: listed apart in the source
[13] = biological target: T7, human Tissue Factor on MDA-MB-231 cells; assay: flow cytometry, MDA-MB-231 cells; binding of 20 nM FVII-Fc-Alexa488 (competitor) left at 9.25 nM Ab
r141-194_h = biological target: T8, r141-194_h (rat/human chimera, UniProt P42533 29-252); assay: live cell staining, flow cytometry
T8 construct: on HEK293 cells

rTF (rat TF) [14] = biological target: T9, rTF (rat TF) (rat, UniProt P42533 29-252); assay: live cell staining, flow cytometry
T9 construct: Expressed on the surface of transfected HEK293 cells

hTF = biological target: T10, hTF (human, UniProt P13726 33-251); assay: live cell staining, flow cytometry
T10 construct: also called human TF; human Tissue Factor

hTF_N171H_T197K [15] = biological target: T3, hTF_N171H_T197K; assay: live cell staining, flow cytometry
h1-77_r = biological target: T11, h1-77_r (human/rat chimera); assay: live cell staining, flow cytometry
T11 construct: Human TF with ECD residues 1-77 replaced by the rat segment; on HEK293 cells

h78-107_r.v2 = biological target: T12, h78-107_r.v2 (human/rat chimera); assay: live cell staining, flow cytometry
T12 construct: on HEK293 cells

h1-107_r = biological target: T4, h1-107_r; assay: live cell staining, flow cytometry
rTF (rat TF) [16] = biological target: T9, rTF (rat TF); assay: live cell staining, flow cytometry; remark: listed apart in the source
mouse TF ECD-His6 [17] = biological target: T5, mouse TF ECD-His6; assay: SPR (Biacore), antibody on chip, TF-His titrated
Relipidated TF = Relipidated TF (UniProt P13726 33-295, limits assumed); assay: cell-based or functional assay

rTF (rat TF) on HEK293 cells, sequence (P42533 29-252): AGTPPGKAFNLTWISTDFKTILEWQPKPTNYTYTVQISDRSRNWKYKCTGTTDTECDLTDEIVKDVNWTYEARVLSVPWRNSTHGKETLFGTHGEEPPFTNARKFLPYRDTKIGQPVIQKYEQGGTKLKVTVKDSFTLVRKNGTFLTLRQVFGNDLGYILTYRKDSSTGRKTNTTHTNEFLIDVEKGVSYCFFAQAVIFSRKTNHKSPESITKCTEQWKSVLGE

Row | Binder | Kd (mouse TF ECD-His6 [1]) | % FVIIa [8] | % FVIIa [9] | % FXa, 12.5 nM Ab [10] | % FXa, 25 nM Ab [10] | % FXa, 50 nM Ab [10] | % FXa, 100 nM Ab [10] | % FVIIa [11] | % IL8, 2.56 nM Ab [12] | % IL8, 6.4 nM Ab [12] | % IL8, 16 nM Ab [12] | % IL8, 40 nM Ab [12] | % IL8, 100 nM Ab [12] | % FVIIa [13] | also measured
1 | 25A3 (antibody, human IgG1, kappa, V domains shown, human IgG1) VH: QVQLVQSGAEVKKPGASVKVSCKASGYTFDVYGISWVRQAPGQGLEWMGWIAPYSGNTNYAQKLQGRVTMTTDTSTSTAYMELRSLRSDDTAVYYCARDAGTYSPFGYGMDVWGQGTTVTVSS VL: DIQMTQSPSTLSASVGDRVTITCQASQSINNWLAWYQQKPGKAPKLLIYKAYNLESGVPSRFSGSGSGTEFTLTISSLQPDDFATYYCQLFQSLPPFTFGGGTKVEIKR | 131 nM | – | – | – | – | – | – | – | – | – | – | – | – | – | Kd (human TF ECD-His6 [2]): 1.67 nM; Kd (cynomolgus TF ECD-His6 [3]): 1.36 nM; Kd (human TF ECD-His6 [4]): 0.36 nM; Kd (cynomolgus TF ECD-His6 [5]): 0.21 nM; binding result [6]: no binding (tested: 15 µg/ml (100 nM)); binding result (hTF_N171H_T197K [7]): no binding
2 | 1G (antibody, V domains shown, Human anti-TF IgG1) VH: EVQLLESGGGLVQPGGSLRLSCAASGFTFSSYAMAWVRQAPGKGLEWVSAISGSGGLTYYADSVKGRFTISRDNSKNTLYLQMNSLRAEDTAVYYCAKAPYGYYMDVWGKGTTVTVSS VL: not shown | – | 7% | 6% | 55% | 48% | 41% | 41% | 7% | 26% | 4% | 3% | 2% | 2% | 7% | –
3 | 1F (antibody, human IgG1, V domains shown, Human IgG1) VH: EVQLLESGGGLVQPGGSLRLSCAASGFTFSDYAMGWVRQAPGKGLEWVSTISGSGGLTYYADSVKGRFTISRDNSKNTLYLQMNSLRAEDTAVYYCAKAPYGYYMDVWGKGTTVTVSS VL: not shown | – | – | – | – | – | – | – | – | – | – | – | – | – | – | Percent antibody binding to TF construct relative to hTF (r141-194_h): 0%; Percent antibody binding to TF construct relative to hTF (rTF (rat TF) [14]): 0%; Percent antibody binding to TF construct relative to hTF (hTF): 100%; Percent antibody binding to TF construct relative to hTF (hTF_N171H_T197K [15]): 83%; Percent antibody binding to TF construct relative to hTF (h1-77_r): 0%; Percent antibody binding to TF construct relative to hTF (h78-107_r.v2): 0%; Percent antibody binding to TF construct relative to hTF (h1-107_r): 0%; Percent antibody binding to TF construct relative to hTF (rTF (rat TF) [16]): 0%
4 | 43D7 (antibody, human IgG1, kappa, V domains shown, human IgG1) VH: QVQLQQWGAGLLKPSETLSLTCAVYGGSLSGYYWSWIRQPPGKGLEWIGEIGASGSTRYNPSLKSRVTISVDTSKNQFSLKLSSVTAADTAVYYCARDTPYYYEGGYYYYMDVWGKGTTVTVSS VL: EIVLTQSPGTLSLSPGERATLSCRASDSVDSSYLAWYQQKPGQAPRLLIYGAFSRANGIPDRFSGSGSGTDFTLTISRLEPEDFAVYYCQQAGVVPYTFGGGTKVEIKR | 41.4 nM | – | – | – | – | – | – | – | – | – | – | – | – | – | Kd (mouse TF ECD-His6 [17]): 21 nM
5 | 43D8 (antibody, human IgG1, kappa, V domains shown, human IgG1; also called 43D8 mAb; test article) VH: QVQLQQWGAGLLKPSETLSLTCAVYGGSLSGYYWSWIRQPPGKGLEWIGEIGASGSTRYNPSLKSRVTISVDTSKNQFSLKLSSVTAADTAVYYCARDTPYYYEGGYYYYMDVWGKGTTVTVSS VL: EIVLTQSPGTLSLSPGERATLSCRASQSVSSSFLAWYQQKPGQAPRLLIYGAYSRATGIPDRFSGSGSGTDFTLTISRLEPEDFAVYYCQQAGVVPYTFGGGTKVEIKR | 6.12 nM | – | – | – | – | – | – | – | – | – | – | – | – | – | Kd (mouse TF ECD-His6 [17]): 2.4 nM
6 | 29D (antibody, V domains shown, Human anti-TF IgG1) VH: QVQLVESGGGVVQPGRSLRLSCAASGFTFHSRGMHWVRQAPGKGLEWVAVITYDGINKYYADSVEGRFTISRDNSKNTLYLQMNSLRAEDTAVYYCARDGVYYGVYDYWGQGTLVTVSS VL: not shown | – | 4% | 3% | 85% | 77% | 75% | 75% | 3% | 27% | 6% | 2% | 2% | 1% | 6% | –
7 | 29E (antibody, V domains shown, Human anti-TF IgG1) VH: QVQLVESGGGVVQPGRSLRLSCAASGFTFRSYGMHWVRQAPGKGLEWVAVITYDGINKYYADSVEGRFTISRDNSKNTLYLQMNSLRAEDTAVYYCARDGVYYGVYDYWGQGTLVTVSS VL: not shown | – | 3% | 2% | 81% | 68% | 63% | 66% | 2% | 33% | 5% | 2% | 2% | 2% | 5% | TGA % ETP, 10 nM Ab, 10 min pre-incubation (Relipidated TF): 73%; TGA % ETP, 50 nM Ab, 10 min pre-incubation (Relipidated TF): 68%; TGA % ETP, 100 nM Ab, 10 min pre-incubation (Relipidated TF): 64%; TGA % Peak IIa, 10 nM Ab, 10 min pre-incubation (Relipidated TF): 30%; TGA % Peak IIa, 50 nM Ab, 10 min pre-incubation (Relipidated TF): 27%; TGA % Peak IIa, 100 nM Ab, 10 min pre-incubation (Relipidated TF): 26%; TGA ETP, 10 nM Ab, 10 min pre-incubation (Relipidated TF): 1250 nM·min; TGA ETP, 50 nM Ab, 10 min pre-incubation (Relipidated TF): 1170 nM·min; TGA ETP, 100 nM Ab, 10 min pre-incubation (Relipidated TF): 1100 nM·min; TGA Lag Time, 10 nM Ab, 10 min pre-incubation (Relipidated TF): 10.4 min; TGA Lag Time, 50 nM Ab, 10 min pre-incubation (Relipidated TF): 14.2 min; TGA Lag Time, 100 nM Ab, 10 min pre-incubation (Relipidated TF): 15.1 min; TGA Peak IIa, 10 nM Ab, 10 min pre-incubation (Relipidated TF): 78 nM; TGA Peak IIa, 50 nM Ab, 10 min pre-incubation (Relipidated TF): 70 nM; TGA Peak IIa, 100 nM Ab, 10 min pre-incubation (Relipidated TF): 68 nM; TGA ttPeak, 10 nM Ab, 10 min pre-incubation (Relipidated TF): 20.2 min; TGA ttPeak, 50 nM Ab, 10 min pre-incubation (Relipidated TF): 24.3 min; TGA ttPeak, 100 nM Ab, 10 min pre-incubation (Relipidated TF): 25.3 min
8 | 54E (antibody, V domains shown, Human anti-TF IgG1) VH: QVQLVQSGAEVKKPGASVKVSCKASGYTFANYYMHWVRQAPGQGLEWMGIINPSGGITVYAQKFQGRVTMTRDTSTSTVYMELSSLRSEDTAVYYCARGGSKVAALAFDIWGQGTMVTVSS VL: DIQMTQSPSSLSASVGDRVTITCQASQDISNSLNWYQQKPGKAPKLLIYDASNLETGVPSRFSGSRSGTDFTFTISSLQPEDIATYYCQQYNFHPLTFGGGTKVEIK | – | 3% | 2% | 53% | 44% | 41% | 42% | 3% | 48% | 8% | 3% | 2% | 2% | 11% | –
